The results in this text go back to patent US20070298499, “Methods and compositions for regulating gene expression in plant cells” (published 2007).

The target in data set [1] is T1, RF2b (expressed in BY-2 protoplasts) (UniProt Q6S4P4).
T1 sequence: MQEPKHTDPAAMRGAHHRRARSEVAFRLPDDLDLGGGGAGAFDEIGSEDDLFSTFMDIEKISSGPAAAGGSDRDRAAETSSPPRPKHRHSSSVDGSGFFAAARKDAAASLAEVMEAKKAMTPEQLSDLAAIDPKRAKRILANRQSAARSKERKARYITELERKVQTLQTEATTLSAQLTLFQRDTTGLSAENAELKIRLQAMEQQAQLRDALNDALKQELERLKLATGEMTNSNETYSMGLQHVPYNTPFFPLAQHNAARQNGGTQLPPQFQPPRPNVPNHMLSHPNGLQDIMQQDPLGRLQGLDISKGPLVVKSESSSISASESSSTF
Kind of data set: cell_activity. To be noted: GUS reporter in BY-2 protoplasts.

In data set [2] the target is T2, RF2b (UniProt Q6S4P4 SEQ:1-329).
T2 chain: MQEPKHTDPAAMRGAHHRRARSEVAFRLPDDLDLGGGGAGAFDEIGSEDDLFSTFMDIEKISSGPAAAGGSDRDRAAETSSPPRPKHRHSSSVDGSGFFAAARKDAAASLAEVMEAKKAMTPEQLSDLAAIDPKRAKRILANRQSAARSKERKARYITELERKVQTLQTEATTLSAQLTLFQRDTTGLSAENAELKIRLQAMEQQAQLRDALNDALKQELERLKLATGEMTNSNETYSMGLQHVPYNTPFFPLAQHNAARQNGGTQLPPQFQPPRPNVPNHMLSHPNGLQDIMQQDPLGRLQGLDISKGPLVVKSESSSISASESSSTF
Kind of data set: SPR; value only in figure; lower affinity than RF2a. To be noted: chain copies: 2 (inferred, bZIP dimer), label: biotin (SPR). The protocol: (§1) To compare the binding affinities of RF2a and RF2b with the Box II element and its mutants, real time Surface Plasmon Resonance (“SPR”) measurements were conducted using a BIAcore 2000 instrument. The binding affinities of RF2a and RF2b to these DNA targets were measured on chips on which biotin labeled-Box II, -Box IIm1 and -Box IIm2 elements were immobilized.
(§2) The association and de-association constants were determined using BIAevaluation 3.1 software—using 1:1 binding with a mass transfer model. In general, RF2a has relatively higher binding affinities to the Box II, Box IIm1 and Box IIm2 elements when compared to RF2b. Furthermore, the DNA binding behavior of RF2a and RF2b are quite different from each other. RF2a appears to bind rapidly to the DNA target and slowly dissociates from the target, while RF2b binds slowly to the DNA target and releases from the target relatively quickly. The differences in the affinity of RF2a to the Box II element and its mutants, however, are not as dramatic as the differences of RF2b, while the relative order of affinities to the different target elements is the same for both proteins (FIG. 8).
On the technique in general: SPR reads the build-up and loss of mass on a sensor chip optically.

Data set [3] deals with T2, RF2b. The data set is described as follows: SPR; value only in figure; lower affinity than RF2a; slow on, relatively fast off. To be noted: chain copies: 2 (inferred, bZIP dimer); label: biotin (SPR). The procedure:
as §1, §2

In data set [4] the target is T3, RF2a-ΔQ (glutamine-rich domain deleted) (UniProt Q69IL4 SEQ:1-283).
T3 chain: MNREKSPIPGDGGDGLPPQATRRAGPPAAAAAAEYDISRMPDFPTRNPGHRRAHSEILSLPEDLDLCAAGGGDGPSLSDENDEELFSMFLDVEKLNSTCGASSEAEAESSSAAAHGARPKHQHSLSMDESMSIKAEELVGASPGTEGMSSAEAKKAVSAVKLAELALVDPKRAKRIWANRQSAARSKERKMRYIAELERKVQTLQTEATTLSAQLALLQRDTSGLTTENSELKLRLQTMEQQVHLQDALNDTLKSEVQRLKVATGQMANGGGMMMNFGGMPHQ
Kind of data set: EMSA; 100 ng protein, 5% acrylamide gel. To be noted: tags: N-terminal His6 (pET28a); chain copies: 2 (inferred, bZIP dimer); label: biotin (SPR); 32P (EMSA). The procedure: (§3) The purified mutant proteins were then analyzed by SDS-PAGE to confirm that each protein was its expected size (FIG. 16(B)). To confirm that each of the mutant proteins bind to the DNA target, i.e., the Box II element and/or its operational derivatives, gel mobility shift assays were carried out with the purified recombinant proteins (FIG. 16(C)). The electrophoretic mobility shift assays were carried out essentially as described in Yin and Beachy (1995). 100 ng of proteins purified from the transformed E. coli were incubated with ³²P-labeled Box IIm1 DNA probe followed by electrophoresis in a 5% acrylamide gel (Yin et al., 1997) (FIG. 16(C)).
On the technique in general: In EMSA bound probe runs differently from free probe, usually more slowly.

In data set [5] the target is T4, RF2a-ΔP (proline-rich domain deleted) (UniProt Q69IL4 SEQ:1-320).
T4 chain: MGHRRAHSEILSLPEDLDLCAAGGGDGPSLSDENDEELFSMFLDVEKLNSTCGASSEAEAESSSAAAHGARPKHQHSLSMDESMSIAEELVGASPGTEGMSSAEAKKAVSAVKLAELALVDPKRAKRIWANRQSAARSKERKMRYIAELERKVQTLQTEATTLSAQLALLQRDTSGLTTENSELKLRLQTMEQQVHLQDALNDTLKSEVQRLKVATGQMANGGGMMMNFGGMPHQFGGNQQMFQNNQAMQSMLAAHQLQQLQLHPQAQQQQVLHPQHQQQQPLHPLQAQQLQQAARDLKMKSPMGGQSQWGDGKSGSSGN
Kind of data set: EMSA; 100 ng protein, 5% acrylamide gel. To be noted: tags: N-terminal His6 (pET28a); chain copies: 2 (inferred, bZIP dimer); label: biotin (SPR); 32P (EMSA). The procedure:
as §3

For data set [6], the target named is T5, RF2a-ΔPΔA (proline-rich and acidic domains deleted) (UniProt Q69IL4 SEQ:1-261).
T5 chain: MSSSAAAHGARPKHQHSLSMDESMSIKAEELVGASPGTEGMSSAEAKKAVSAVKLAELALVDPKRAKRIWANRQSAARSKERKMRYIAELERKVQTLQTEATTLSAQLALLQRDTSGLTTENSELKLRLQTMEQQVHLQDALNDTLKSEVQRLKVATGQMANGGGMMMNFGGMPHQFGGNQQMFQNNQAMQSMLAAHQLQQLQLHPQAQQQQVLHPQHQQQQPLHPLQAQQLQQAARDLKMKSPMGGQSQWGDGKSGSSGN
Kind of data set: EMSA; 100 ng protein, 5% acrylamide gel. The note with it: tags: N-terminal His6 (pET28a); chain copies: 2 (inferred, bZIP dimer); label: biotin (SPR); 32P (EMSA). The procedure: as §3

The target in data set [7] is T6, RF2a-ΔPΔQ (proline- and glutamine-rich domains deleted) (UniProt Q69IL4 SEQ:1-236).
T6 chain: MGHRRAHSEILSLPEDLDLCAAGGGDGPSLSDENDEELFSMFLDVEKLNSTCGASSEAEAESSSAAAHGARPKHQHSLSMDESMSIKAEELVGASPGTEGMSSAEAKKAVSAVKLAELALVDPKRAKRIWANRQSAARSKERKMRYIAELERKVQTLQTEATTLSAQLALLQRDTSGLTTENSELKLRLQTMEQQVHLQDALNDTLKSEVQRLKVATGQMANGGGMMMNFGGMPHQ
The data set is described as follows: EMSA; 100 ng protein, 5% acrylamide gel. To be noted: tags: N-terminal His6 (pET28a); chain copies: 2 (inferred, bZIP dimer); label: biotin (SPR); 32P (EMSA). The protocol:
as §3

“ACGAATCAATAAAGAAGGACCAGAAGATATAAAGCTGGAACATCTTCACATGCTACCACATGGCTAGCATCTTTACTTTAGCATCTCTATTATTGTAAGAGTGTATAATGACCAGTGTGGCGCTGGACTCCAGTATATAAGGAGCACCAGAGTAGTGTAATAGATCATCGATCAAGCAAGCGAGAGCTCAAACTTCTAAGAGAGCAAGA (double strand) [E fragment with Box IIm1]” had an activity (fold activation) in data set [1] of 7.

The molecule “ACGAATCAATAAAGAAGGACCAGAAGATATAAAGCTGGAACATCTTCACATGCTACCACATGGCTAGCATCTTTACTTTAGCATCTCTATTATTGTAAGAGTGTATAATGAGGAGTGTGCCCCTTCACTCCAGTATATAAGGAGCACCAGAGTAGTGTAATAGATCATCGATCAAGCAAGCGAGAGCTCAAACTTCTAAGAGAGCAAGA (double strand) [E fragment with Box IIm2]” came in with an activity (fold activation) in data set [1] of 5.8.

B1: Box IIm2 (dsDNA)
DNA 1: GGAGTGTGCCCCTTC
DNA 2: GAAGGGGCACACTCC
Take B1: in the data set with RF2b [2], the binding result was “binds”.

B2: Box II (dsDNA)
DNA 1: CCAGTGTGCCCCTGG
DNA 2: CCAGGGGCACACTGG
Turning to B2, the binding result with RF2b [3] is “binds”.

B3: Box IIm1 (dsDNA)
DNA 1: CCAGTGTGGCGCTGG
DNA 2: CCAGCGCCACACTGG
Take B3: the binding result (in data set [4]; in data set [5]; in data set [6]; in data set [7]; in the data set with RF2b [2] (32P (EMSA))) was “binds” in each case.
